Source: the supplement of paper PMC10899765

Tests used:
Conditions in all cases: 20 nM; 72 h
MCF10A [1] = test: percent viability (nuclei count relative to siNT); higher = more viable cells
Protocol: (§1)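 After 72 h, cells were fixed and stained with Hoechst and anti-fibrillarin, and nucleoli per nucleus were counted with CellProfiler. Values are plate-adjusted percent effect for the one-nucleolus and 5+ nucleoli phenotypes, normalised to siNT (0%) and to the positive controls siNOL11 or siKIF11 (100%), as the mean of biological triplicates. Percent viability is the nuclei count relative to siNT.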

MCF10A [2] = test: 5+ nucleoli phenotype percent effect (relative to siNT 0% and siKIF11 100%); higher = more cells with five or more nucleoli
Protocol: as §1

MCF10A [3] = test: one-nucleolus phenotype percent effect (relative to siNT 0% and siNOL11 100%); higher = more cells with one nucleolus (ribosome biogenesis inhibition)
Protocol: as §1

Row | Sequence | percent viability (MCF10A [1]) [%] | 5+ nucleoli phenotype percent effect (MCF10A [2]) [%] | one-nucleolus phenotype percent effect (MCF10A [3]) [%]
1 | UUGGGAGGGAAGACAGCUGGAGA [hsa-miR-6780a-5p] | 13.4 | -30.2 | 55
2 | UUGUGUCAAUAUGCGAUGAUGU [hsa-miR-592] | 69.9 | -26.9 | 31.3
3 | UGACCUCUCCGCUCCGCACAG [hsa-miR-6821-3p] | 38.9 | -22.7 | 7.28
4 | CUAGGUAUGGUCCCAGGGAUCC [hsa-miR-331-5p] | 111 | 19 | -17.6
5 | CAAAGUGCUCAUAGUGCAGGUAG [hsa-miR-20b-5p] | 58.4 | 9.26 | -12
6 | ACUCCAAGAAGAAUCUAGACAG [hsa-miR-5695] | 183 | 39.3 | -26.7
7 | GAAUAUGGGUAUAUUAGUUUGG [hsa-miR-5583-3p] | 65.4 | 43.7 | -14.1
8 | UUGUCUGCUGAGUUUCC [hsa-miR-4288] | 31.9 | -15.9 | 27.6
9 | AAAAGUAAUUGCGGAUUUUGCC [hsa-miR-548i] | 140 | 20.3 | -17.1
10 | AAAAGUGCUUACAGUGCAGGUAG [hsa-miR-106a-5p] | 48.8 | 22.1 | -17.6
11 | AAGAAGAGACUGAGUCAUCGAAU [hsa-miR-5197-3p] | 24.8 | 26.1 | -5.79
12 | GGUGGGGGCUGUUGUUU [hsa-miR-4447] | 24.5 | -20.8 | 38.7
13 | CUAAUAGUAUCUACCACAAUAAA [hsa-miR-633] | 107 | 35.1 | -23.4
14 | CAAGCUCGUGUCUGUGGGUCCG [hsa-miR-99b-3p] | 84.3 | -2.82 | 8.24
15 | UGCUGGAUCAGUGGUUCGAGUC [hsa-miR-1287] | 25.2 | -26.2 | 64.1
16 | CAAAUGAGCUUAAUUUCCUUUU [hsa-miR-1252-3p] | 160 | 37.8 | -15.1
17 | AUCUGUCUCGAUUGUUUCCAG [hsa-miR-6888-3p] | 110 | 6.29 | 23.5
18 | GCUGCGGGCUGCGGUCAGGGCG [hsa-miR-4734] | 40.7 | 8.16 | -5.38
19 | AGGAAAUGAGGCUGGCUAGGAGC [hsa-miR-5093] | 25.8 | 0.0169 | 23.8
20 | AGGAAGCCCUGGAGGGGCUGGAG [hsa-miR-671-5p] | 45.3 | -27.7 | 58.7
21 | AGCUGGUGUUGUGAAUCAGGCCG [hsa-miR-138-5p] | 21.6 | -24.6 | 13.5
22 | UGAGUGACAGGGGAAAUGGGGA [hsa-miR-1236-5p] | 36.9 | -4.72 | -0.0652
23 | UUGUGGGGUUGGAGAGCUGGCUG [hsa-miR-6796-5p] | 17.2 | -31.5 | 45.3
24 | UGCUGUAUUGUCAGGUAGUGA [hsa-miR-4999-5p] | 48.1 | -10.3 | -7.82
25 | UAAGGCACCCUUCUGAGUAGA [hsa-miR-506-3p] | 15.7 | -31.8 | 57.2
26 | UACCAUUAGAAGAGCUGGAAGA [hsa-miR-6512-5p] | 78.6 | 11 | 1.01
27 | CCUCUAGAUGGAAGCACUGUCU [hsa-miR-517-5p] | 56 | 23.9 | 2.26
28 | GAGUUCUACAGUCAGAC [hsa-miR-3168] | 22.3 | -12.9 | -2.63
29 | UGCCUACUGAGCUGAUAUCAGU [hsa-miR-24-1-5p] | 49.2 | -18 | 3.46
